We go through three substances from PMC2120686.

pKd: −log10 of the molar value. Several values for one entry are separate records, joined by “and”; a condition that tells them apart may be missing. Identical values can stand only once.

The target in experiment [1] is titin (rabbit). The experiment in a line: ELISA.
Experiment [2] addresses titin (rabbit). Put plainly: light scattering.
Experiment [3] addresses dansylated LMM (rabbit). Put plainly: fluorescence polarisation. For orientation: Polarisation of emitted light reports the rotation of a fluorescent probe.
Experiment [4] deals with light meromyosin (LMM) (rabbit). The experiment in a line: electron microscopy.
For experiment [5], the target named is J peptide (15-kD CNBr fragment of LMM) (rabbit). The experiment in a line: ELISA. A general note: ELISA stands for enzyme-linked immunosorbent assay.
Experiment [6] has as its target K peptide (30-kD CNBr fragment of LMM) (rabbit). The experiment in a line: ELISA.
For experiment [7], the target named is light meromyosin (LMM) (rabbit). Put plainly: ELISA.

As to “J peptide (15-kD CNBr fragment of LMM) (domain or fragment)”, in experiment [1], the maximum inhibition of titin binding to LMM was 60%.

For orientation: stoichiometry N means the number of molecules, sites or subunits per partner or assembly. In experiment [2], “light meromyosin (LMM) (domain or fragment)” returned a stoichiometry N of 25 to 50.

Usually pKd stands for the negative decadic logarithm of the Kd, by convention in mol/L. Low readings indicate a high Kd, high ones a low Kd. In the case of titin (natural protein), the pKd in experiment [3] is 7.82; in experiment [5], 7.52 and 7.70; in experiment [7] it was 7.92. Further, the molecular-binding constant in experiment [3] was determined as 400 nM. This substance yielded a percent of molecules closely associated in experiment [4] of 20%. In experiment [6], the fold lower affinity than the 15-kD peptide was determined as 100 fold.
